Assay in all cases: two-hybrid library CCmax;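 note: natural log of median RNA to DNA barcode read ratio; higher means stronger binding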
In one assay the target is GCN2_T.
In the next assay the target is 4H_GCN4.
The next assay has as its target T1, 4H2611-AA.
T1 chain: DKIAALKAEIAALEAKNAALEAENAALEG

In another assay the target is T2, 4H_BCR.
T2 chain: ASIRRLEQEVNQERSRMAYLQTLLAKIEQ
Particulars: mean of both orientations.

A further assay concerns the target T3, 4H3590-AA.
T3 chain: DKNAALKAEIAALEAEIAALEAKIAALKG
The conditions noted are these: mean of both orientations.

The target of a further assay is T4, 4H_APH.
T4 chain: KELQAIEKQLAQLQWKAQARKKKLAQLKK

The target of the next assay is T5, 4H384-AA.
T5 chain: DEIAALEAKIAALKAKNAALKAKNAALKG
Particulars: mean of both orientations.

The target in the next assay is T6, 4H3865-AA.
T6 chain: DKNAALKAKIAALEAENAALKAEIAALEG
The conditions noted are these: mean of both orientations.

The target of another assay is T7, 4H697-AA.
T7 chain: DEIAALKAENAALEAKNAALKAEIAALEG
The conditions noted are these: mean of both orientations.

For the next assay, the target named is T8, 4H3718-AA.
T8 chain: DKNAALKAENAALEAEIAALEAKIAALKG

The target in a further assay is T9, 4H717-AA.
T9 chain: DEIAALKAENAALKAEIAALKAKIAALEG
Particulars: mean of both orientations.

A further assay addresses T10, 4H3697-AA.
T10 chain: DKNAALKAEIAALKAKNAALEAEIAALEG
Particulars: mean of both orientations.

The target in the next assay is T11, 4H982-AA.
T11 chain: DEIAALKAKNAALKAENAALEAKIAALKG
Particulars: mean of both orientations.

In another assay the target is T12, 4H3606-AA.
T12 chain: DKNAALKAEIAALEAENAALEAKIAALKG

The next assay has as its target T13, 4H249-AA.
T13 chain: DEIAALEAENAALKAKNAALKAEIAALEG

The next assay concerns the target T14, 4H2253-AA.
T14 chain: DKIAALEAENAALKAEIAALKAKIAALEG
Particulars: mean of both orientations.

The target in a further assay is T15, 4H2330-AA.
T15 chain: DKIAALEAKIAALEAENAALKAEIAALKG
Particulars: mean of both orientations.

A further assay has as its target T16, 4H2774-AA.
T16 chain: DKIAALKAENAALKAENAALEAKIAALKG
The conditions noted are these: mean of both orientations.

A further assay addresses T17, 4H570-AA.
T17 chain: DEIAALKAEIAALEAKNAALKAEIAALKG

Another assay addresses T18, 4H3381-AA.
T18 chain: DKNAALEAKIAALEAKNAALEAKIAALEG
The conditions noted are these: mean of both orientations.

The target of the next assay is T19, 4H797-AA.
T19 chain: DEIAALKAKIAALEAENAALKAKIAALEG
The conditions noted are these: mean of both orientations.

Read-outs that look alike come from different tables or passages of the source.

Chain of 4H_GCN4 (chain, as listed by the source): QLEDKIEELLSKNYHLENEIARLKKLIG

Regarding DENAALEAKIAALKAEIAALEAKIAALKG [4H1350-AA], the interaction score with GCN2_T is -1.41; in the assay with 4H_GCN4, -1.31; with 4H2611-AA it was -1.74; in the assay with 4H_BCR, -1.28; with 4H3590-AA, 2.09; in the assay with 4H_APH (mean of both orientations), -1.67. In the assay with 4H384-AA, this molecule gave an interaction score of -0.758.

For the molecule DENAALEAKIAALKAKNAALKAEIAALEG [4H1401-AA], the interaction score with 4H3865-AA was 0.227; with GCN2_T, -1.62; with 4H_GCN4 it was -1.67; with 4H697-AA, -1.39; with 4H3718-AA (mean of both orientations), 0.196; with 4H2611-AA (mean of both orientations), -1.66. The interaction score with 4H_BCR was -1.64; with 4H717-AA, -1.5; with 4H_APH (mean of both orientations) it was -1.86; in the assay with 4H3697-AA, -0.792; in the assay with 4H982-AA it was -0.483; with 4H3606-AA (mean of both orientations) it was 2.07. In addition, in the assay with 4H384-AA, the interaction score was -1.67.

On to DKIAALEAEIAALKAKNAALEAKIAALEG [4H2165-AA], for which the interaction score is -1.41 with GCN2_T; -1.58 with 4H_GCN4; -1.16 with 4H249-AA (mean of both orientations); -0.379 with 4H_BCR; -1.02 in the assay with 4H2253-AA; -1.25 in the assay with 4H717-AA. In addition, the interaction score is -1.76 with 4H_APH, -1.33 with 4H2330-AA, -0.839 with 4H2774-AA and -0.638 in the assay with 4H3606-AA (mean of both orientations).

Turning to DKNAALKAEIAALEAENAALEAKIAALKG [4H3606-AA], the interaction score was 1.86 in the assay with 4H3865-AA; -0.266 with GCN2_T; -0.288 with 4H_GCN4; -0.116 in the assay with 4H697-AA; -1.15 in the assay with 4H3718-AA; -0.919 in the assay with 4H_BCR. In addition, the interaction score was -2.43 with 4H570-AA; -1.65 with 4H717-AA; -1.27 with 4H_APH (mean of both orientations); 1.42 in the assay with 4H3697-AA; 0.00779 in the assay with 4H982-AA; -0.0341 in the assay with 4H3606-AA. The molecule further returned an interaction score in the assay with 4H384-AA of 1.18.

Consider DEIAALEAENAALKAKNAALKAEIAALEG [4H249-AA], for which the interaction score with GCN2_T is -1.96; with 4H_GCN4, -1.66; with 4H249-AA it was -0.781; with 4H2611-AA (mean of both orientations) it was -1.99; with 4H_BCR, -1.72; with 4H_APH (mean of both orientations), -1.97. For the same molecule, the interaction score with 4H2774-AA was 1.92; with 4H3381-AA it was -1.79.

As for DENAALEAENAALKAKIAALKAEIAALEG [4H1257-AA], the interaction score with 4H797-AA was -1.57; with GCN2_T, -1.92; with 4H_GCN4 it was -2.56; with 4H249-AA (mean of both orientations), -1.46; in the assay with 4H_BCR, -2.19; in the assay with 4H717-AA it was 0.282. The interaction score in the assay with 4H_APH (mean of both orientations) is -1.94; in the assay with 4H2774-AA, 2.09.

Consider DENAALEAENAALEAEIAALEAEIAALEG [4H1153-AA], for which the interaction score in the assay with 4H3865-AA is -1.67; in the assay with 4H697-AA it was -1.68; with 4H3718-AA (mean of both orientations), 0.217; in the assay with 4H2611-AA (mean of both orientations), -1.92; with 4H717-AA, -1.1; in the assay with 4H3697-AA it was -1.72. Besides, the interaction score in the assay with 4H982-AA was -0.675; in the assay with 4H3606-AA, -0.981; with 4H384-AA, -0.314.

With DENAALEAEIAALEAKIAALEAKNAALKG [4H1064-AA], the interaction score is -2.06 in the assay with 4H249-AA (mean of both orientations) and -1.39 in the assay with 4H2774-AA.

The record behind these values is paper PMC10397247.
